Laboratory results from patent US5661005, “β3 integrin subunit specific polypeptides, cDNAS which encode these polypeptides and methods of producing these polypeptides” (Trustees of the University of Pennsylvania, dated 1997).
One block for each binder: values may come before it.

Legend:
[1] = target: T1, integrin β2 cytoplasmic domain (Homo sapiens (Human), UniProt P05107); assay: yeast two-hybrid, quantitative β-galactosidase assay
T1 chain: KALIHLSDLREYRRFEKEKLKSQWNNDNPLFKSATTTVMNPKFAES

[2] = target: T2, integrin β1 cytoplasmic domain (Homo sapiens (Human), UniProt P05556); assay: as above
T2 chain: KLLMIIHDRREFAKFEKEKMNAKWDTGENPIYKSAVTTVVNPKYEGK

[3] = target: β3 cytoplasmic tail with mutation of a serine to a proline at amino acid residue 752 (Saccharomyces cerevisiae (strain ATCC 204508 / S288c) (Baker's yeast); Homo sapiens (Human)) (UniProt P04386); assay: yeast two-hybrid, quantitative β-galactosidase assay of yeast lysates

binding result [1]: no binding
binding result [2]: no binding
B1: β3 integrin subunit specific polypeptide comprising about 111 amino acids (SEQ ID NO: 4) (other)
chain: MPVKRSLKLDGLLEENSFDPSKITRKKSVITYSPTTGTCQMSLFASPTSSEEQKHRNGLSNEKRKKLNHPSLTESKESTTKDNDEFMMLLSKVEKLSEEIMEIMQNLSSIQ

binding result [1]: no binding
binding result [2]: no binding
reduction in the interaction (against the unmutated β3 cytoplasmic tail) [3]: 70%
B2: polypeptide encoded by clone 28 (SEQ ID NO: 2), β3 integrin subunit specific polypeptide (other)
chain: GHEGPKITRKKSVITYSPTTGTCQMSLFASPTSSEEQKHRNGLSNEKRKKLNHPSLTESKESTTKDNDEFMMLLSKVEKLSEEIMEIMQNLSSIQ
